{"source": "paper PMC7325720", "about": "(The Journal of Infectious Diseases, 2019)", "key": {"[1]": {"target": "the molecule itself", "test": "crystal structure"}, "[2]": {"target": "T1, MBP-CD74 (CD74 ectodomain fused to maltose binding protein), biotinylated (UniProt P04233 73-296, biotin (EZ-Link Sulfo-NHS-LC-Biotinylation kit))", "T1 sequence (looked up)": "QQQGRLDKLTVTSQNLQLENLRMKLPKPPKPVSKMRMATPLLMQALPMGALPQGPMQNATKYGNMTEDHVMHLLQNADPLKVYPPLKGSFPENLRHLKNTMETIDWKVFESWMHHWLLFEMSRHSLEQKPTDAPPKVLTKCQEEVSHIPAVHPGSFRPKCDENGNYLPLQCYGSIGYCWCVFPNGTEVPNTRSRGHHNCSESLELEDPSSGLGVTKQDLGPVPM", "test": "BLI"}}}
{"binder": "Entamoeba histolytica macrophage migration inhibitory factor (Eh-MIF) (natural protein) MPHALITLSADITEEIKKEIAHESMKILSEVIGKPISYCATQVVTSVGGFGGKIVKSAFIDIKSISGLKGKQEGLSDRYCKLLEQKAGIEGGNIYLNFTEMTGNNWGYDHSTF", "values": [{"measurement": "stoichiometry N", "setting": "[1]", "result": 3}, {"measurement": "Kd", "setting": "[2]", "result": 0.0112, "unit": "µM"}]}
{"binder": "human macrophage migration inhibitory factor (human MIF) (natural protein, UniProt P14174 1-115, looked up) MPMFIVNTNVPRASVPDGFLSELTQQLAQATGKPPQYIAVHVVPDQLMAFGGSSEPCALCSLHSIGKIGGAQNRSYSKLLCGLLAERLRISPDRVYINYYDMNAANVGWNNSTFA", "values": [{"measurement": "Kd", "setting": "[2]", "result": 0.0182, "unit": "µM"}]}
